Where two headings read alike, the source gives them in different places. Bounds are passed on as bounds.

The target of test [1] is T1, human BCMA expressed on cells (human, UniProt Q02223 1-184).
T1 construct: the cell line is named under assay; also called wildtype human BCMA
T1 sequence: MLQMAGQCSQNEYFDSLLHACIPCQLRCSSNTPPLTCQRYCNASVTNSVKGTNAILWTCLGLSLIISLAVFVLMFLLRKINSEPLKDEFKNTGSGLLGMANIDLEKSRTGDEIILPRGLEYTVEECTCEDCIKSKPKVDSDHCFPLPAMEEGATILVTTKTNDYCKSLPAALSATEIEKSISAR
Put plainly: flow cytometry, HEK293 cells stably expressing human BCMA.

The target of test [2] is T2, His-tagged human BCMA (Acro Biosystems, Cat. #BCA-H522y) (human, UniProt Q02223 1-54).
T2 construct: also called huBCMA; P1; not shown: His tag
T2 sequence: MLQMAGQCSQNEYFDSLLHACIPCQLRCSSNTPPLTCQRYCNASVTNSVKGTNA
Description: BLI, His-tagged human BCMA on HIS1K tip; R2 0.9903.

Test [3] has as its target T3, His-tagged mouse BCMA (Acro Biosystems, BCA-M52H3) (mouse, UniProt O88472 1-49).
T3 construct: Bought protein; not shown: His tag
T3 chain: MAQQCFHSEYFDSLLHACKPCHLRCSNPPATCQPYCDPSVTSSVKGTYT
Description: BLI, His-tagged mouse BCMA on HIS1K tip.

The target in test [4] is T1, human BCMA expressed on cells. Description: flow cytometry, H929 cells (BCMA-expressing).
The target in test [5] is T4, His-tagged cynomolgous macaque BCMA (Acro Biosystems, BCA-C52H7) (cynomolgus macaque, UniProt Q02223 1-54 (human entry)).
T4 construct: Bought protein; also called cyno BCMA; CyBCMA; not shown: His tag
Description: BLI, His-tagged cynomolgus BCMA on HIS1K tip; R2 0.9205.

The target in test [6] is T5, cynomolgous macaque BCMA expressed on CHOK1 cells.
T5 construct: also called cyno BCMA on cells
Description: flow cytometry, CHOK1 cells transiently expressing cynomolgus BCMA.

In test [7] the target is T4, His-tagged cynomolgous macaque BCMA …. Put plainly: BLI, His-tagged cynomolgus BCMA on HIS1K tip.
The target in test [8] is T2, His-tagged human BCMA (Acro Biosystems, …). Put plainly: BLI, His-tagged human BCMA on HIS1K tip.
Test [9] has as its target T6, recombinant his-tagged human TACI (Sinobiological cat #11937-H08H) (human, UniProt O14836 1-165).
T6 construct: Bought protein; also called Human TACI-His; huTACI; not shown: His tag
T6 sequence: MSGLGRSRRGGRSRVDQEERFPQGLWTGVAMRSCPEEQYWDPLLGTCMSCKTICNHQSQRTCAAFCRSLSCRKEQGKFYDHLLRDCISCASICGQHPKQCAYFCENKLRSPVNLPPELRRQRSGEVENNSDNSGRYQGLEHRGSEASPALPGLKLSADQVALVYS
Put plainly: ELISA, coated His-tagged human TACI.

Test [10] addresses T2, His-tagged human BCMA (Acro Biosystems, …). Description: BLI, His-tagged human BCMA on HIS1K tip, no APRIL; R2 0.9903.
For test [11], the target named is T3, His-tagged mouse BCMA (Acro Biosystems, …). Description: BLI, His-tagged mouse BCMA on HIS1K tip; R2 0.2621, below the filing's cut-off of 0.9.
The target in test [12] is T2, His-tagged human BCMA (Acro Biosystems, …). Put plainly: ELISA, coated His-tagged human BCMA.
Test [13] has the same target. Description: BLI, His-tagged human BCMA on HIS1K tip, no APRIL; R2 0.9933.
The target of test [14] is T4, His-tagged cynomolgous macaque BCMA …. Put plainly: BLI, His-tagged cynomolgus BCMA on HIS1K tip; R2 0.9421.
The target of test [15] is T1, human BCMA expressed on cells. Put plainly: flow cytometry, HEK 293 cells expressing human BCMA.
Test [16] deals with T4, His-tagged cynomolgous macaque BCMA …. Description: ELISA, coated His-tagged cynomolgus BCMA.
The target of test [17] is T2, His-tagged human BCMA (Acro Biosystems, …). Description: BLI, His-tagged human BCMA on HIS1K tip; R2 0.9933.
The target in test [18] is T4, His-tagged cynomolgous macaque BCMA …. Put plainly: BLI, His-tagged cynomolgus BCMA on HIS1K tip; R2 0.9915.
Test [19] has as its target T7, BCMA Mut (human, UniProt Q02223 1-184).
T7 construct: Expressed on HEK293T cells; also called human BCMA comprising the substitutions Y13A, D15A, L17G and L18G
T7 chain: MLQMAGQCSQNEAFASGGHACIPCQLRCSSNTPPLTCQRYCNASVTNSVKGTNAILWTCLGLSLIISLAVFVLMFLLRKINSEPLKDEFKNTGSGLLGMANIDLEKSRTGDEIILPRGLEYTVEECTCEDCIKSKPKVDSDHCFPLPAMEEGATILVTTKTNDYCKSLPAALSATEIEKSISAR
Put plainly: flow cytometry on HEK293T cells expressing BCMA Mut.

The target in test [20] is T2, His-tagged human BCMA (Acro Biosystems, …). Description: BLI, His-tagged human BCMA on HIS1K tip; R2 0.9915.
Test [21] has as its target T3, His-tagged mouse BCMA (Acro Biosystems, …). Put plainly: BLI, His-tagged mouse BCMA on HIS1K tip; R2 0.9403.
Test [22] concerns the target T2, His-tagged human BCMA (Acro Biosystems, …). Description: competition ELISA: His-tagged human BCMA binding to coated APRIL-Fc in the presence of the antibody.
The target of test [23] is T1, human BCMA expressed on cells. Put plainly: flow cytometry, HEK293 cells stably expressing human BCMA. The source holds these as a separate data set.
Test [24] has the same target. Put plainly: flow cytometry, H929 cells (BCMA-expressing). The source holds these as a separate data set.
In test [25] the target is T6, recombinant his-tagged human TACI …. Put plainly: ELISA, coated His-tagged human TACI. The source holds these as a separate data set.
The target in test [26] is T5, cynomolgous macaque BCMA expressed on …. Description: flow cytometry, CHOK1 cells transiently expressing cynomolgus BCMA. This is another data set of the same source.
Test [27] has as its target T2, His-tagged human BCMA (Acro Biosystems, …). Put plainly: ELISA, coated His-tagged human BCMA. The source holds these as a separate data set.
For test [28] the target is unchanged. Put plainly: BLI, His-tagged human BCMA on HIS1K tip, no APRIL; R2 0.9915.
Test [29] deals with T6, recombinant his-tagged human TACI …. Description: ELISA, coated His-tagged human TACI. This is another data set of the same source.
Test [30] has as its target T8, human TACI expressed on cells (human, UniProt O14836 1-293).
T8 construct: also called wildtype human TACI
T8 sequence: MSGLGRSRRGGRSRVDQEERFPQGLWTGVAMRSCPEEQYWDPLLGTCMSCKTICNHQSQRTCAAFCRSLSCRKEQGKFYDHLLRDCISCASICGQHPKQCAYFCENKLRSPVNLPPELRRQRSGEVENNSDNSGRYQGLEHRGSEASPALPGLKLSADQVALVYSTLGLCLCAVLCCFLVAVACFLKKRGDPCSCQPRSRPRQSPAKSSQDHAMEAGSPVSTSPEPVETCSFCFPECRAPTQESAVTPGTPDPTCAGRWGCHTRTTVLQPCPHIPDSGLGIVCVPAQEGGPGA
Put plainly: flow cytometry, HEK 293 cells expressing human TACI.

B1: 539-SP7-F4 hIgG1 (antibody, V domains shown)
VH: EVQLQQSGPELVKPGASMKISCKASGYSFTGYIMNWVKQSHGKNLEWIGLINPYNGDSIYNQKFKGKATLTVDKSSSTAYMELFSLTSEDSTVYYCAAGEEFAYWGQGTLVTVSA
VL: DIQMTQTSSSLSASLGDRVTISCRASQDISIYLNWFQQKPDGTVKLLIYFTSRLHPGVPSRFSASGSGTDYSLTISHLEHEDIATYFCQQGNTLPRTFGGGTKVELKR
notes: Human-mouse chimeric antibody, human IgG1 format
For the molecule B1, the “EC50 (read off the curve)” value is around 0.05 µg/mL in [1] and around 0.04 µg/mL in test [4]. The Kd in [2] was below 0.001 nM; in test [5] it was 34.1 nM; in test [10] it was below 0.001 nM; in test [11], 8.97 nM. Also, the “Mouse BCMA response” value in test [3] was found to be 0.371. The values for the binding result in test [6] and in [9] were “binds” and “no binding (tested: 10 ug/ml)”, respectively. The “Cyno BCMA response” value in test [7] was found to be 1.36. In [8], the “Human BCMA response” value stood at 2.61.

B2: 552-LN1-E9 hIgG1 (antibody, V domains shown)
VH: QIQLVQSGPELKKPGETVKISCKASGYTFTDYSIYWVKQAPGKGLKWMGWINTETGEPTYADDFKGRFAFSLETSASSAYLQINTLKNEDTATYFCSISYYYAMDYWGQGTSVTVSS
VL: DIVLTQSPASLAVSLGQRATISCRASKSVSTSGYSFLHWYQQKPGQPPKLLIYFASNLESGVPARFSGSGSGTDFTLNIHPVEEEDAATYYCQHSRELPRTFGGGTKLEIKR
notes: Human-mouse chimeric antibody, human IgG1 format; also called [6]
With B2, the EC50 in test [12] is 0.081 nM; in test [15] it was 0.65 nM. Also, the Kd in test [13] is below 0.001 nM; in test [14] it was 32.6 nM; in test [17], below 0.001 nM. Besides, the “EC50 (read off the curve)” value in test [1] is around 0.1 µg/mL; in [4], around 0.05 µg/mL; in [16] it was around 0.08 µg/mL. The results for the binding result in test [6] and in test [9] were “binds” and “no binding (tested: 10 ug/ml)”, respectively. In addition, the “Cyno BCMA response” value in test [7] turned out to be 1.8. Moreover, in [8], the “Human BCMA response” value is 2.76.

B3: 539-SP1-C8 hIgG1 (antibody, V domains shown)
VH: EVQLQQSGPELVKPGSSVKMSCKASGYTFTNYVMHWVKQKPGQGLEWIGYILPYNDGTKYNEKFKGKATLTSDKSSSTAYMEFSVLTSEDSAVYYCARYDYEGSFDYWGQGTALTVSS
VL: DIQMTQTTSSLSASLGDRVTISCRASQDISNYLNWYQQKPDGTVKLLMCYTSRLHSGVPSRFSGSGSGTDFSLTISNLEQEDIATYFCQQGNTFPPTFGGGTKLEIKR
notes: Human-mouse chimeric antibody, human IgG1 format; also called [2]
As to B3, the EC50 in [12] was 0.059 nM; in test [25], 0.083 nM; in test [15] it was 2.56 nM; in test [30], 8.2 nM. The “Mouse BCMA response” value in [3] amounted to 0.86. The Kd in [18] was 14.7 nM; in test [20] it was below 0.001 nM; in [21] it was 29.5 nM; in test [28], below 0.001 nM. Moreover, the “EC50 (read off the curve)” value in [4] was around 0.02 µg/mL; in test [23], around 0.4 µg/mL; in test [24], around 1 nM; in [27], around 0.009 µg/mL; in test [29], around 0.01 µg/mL. The results for the binding result in test [19] and in [26] were “no binding” and “binds”, respectively. Moreover, the IC50 in test [22] is 1.17 nM. Besides, the “Cyno BCMA response” value in test [7] is 0.456. Further, in test [8], the “Human BCMA response” value was 2.46.

These data come from patent US20230374147A1 (HUMMINGBIRD BIOSCIENCE PTE, published 2023).
